Laboratory results published in patent US20220332804A1 (CSL INNOVATION, published 2022).
Positions count from the first letter of the chain named.

Experiments:
Test in all cases: SPR, mAb captured, C2 mutant analyte;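 also: Anti-C2 mAbs captured on goat anti-human IgG Biacore CM5 chips, alanine or serine C2 surface mutants flowed over at 37 °C, double-referenced sensorgrams fitted to a 1:1 binding model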
human C2 S473A = biological target: T1, human C2 S473A (human, UniProt P06681 21-752)
T1 sequence: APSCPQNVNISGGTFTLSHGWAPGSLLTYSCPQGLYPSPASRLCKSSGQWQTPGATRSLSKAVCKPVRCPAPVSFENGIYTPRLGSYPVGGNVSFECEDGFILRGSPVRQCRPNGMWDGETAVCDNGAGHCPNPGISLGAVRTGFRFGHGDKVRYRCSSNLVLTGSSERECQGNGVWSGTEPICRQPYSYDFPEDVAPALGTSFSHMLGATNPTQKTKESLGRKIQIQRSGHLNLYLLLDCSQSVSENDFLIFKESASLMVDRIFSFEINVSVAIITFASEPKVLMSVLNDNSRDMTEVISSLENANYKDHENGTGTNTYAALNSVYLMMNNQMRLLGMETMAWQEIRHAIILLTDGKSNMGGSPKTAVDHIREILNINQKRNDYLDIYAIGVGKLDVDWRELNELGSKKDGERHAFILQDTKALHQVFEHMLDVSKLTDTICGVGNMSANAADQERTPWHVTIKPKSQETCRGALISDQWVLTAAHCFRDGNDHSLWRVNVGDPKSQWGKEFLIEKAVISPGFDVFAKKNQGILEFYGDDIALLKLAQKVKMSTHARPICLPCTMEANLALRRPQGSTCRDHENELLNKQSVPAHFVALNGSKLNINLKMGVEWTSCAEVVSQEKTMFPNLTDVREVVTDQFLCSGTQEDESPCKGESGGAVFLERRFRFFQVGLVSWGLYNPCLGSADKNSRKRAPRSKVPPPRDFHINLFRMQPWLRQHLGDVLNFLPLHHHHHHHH

human C2 A472S = biological target: T2, human C2 A472S (human, UniProt P06681 21-752)
T2 sequence: T1 sequence with A452S, A453S

human C2 G466A = biological target: T3, human C2 G466A (human, UniProt P06681 21-752)
T3 sequence: T1 sequence with G446A, A453S

human C2 F437A = biological target: T4, human C2 F437A (human, UniProt P06681 21-752)
T4 sequence: T1 sequence with F417A, A453S

- Kd (human C2 S473A): 68.7 nM
- Kd (human C2 A472S): 234 nM
- Kd (human C2 G466A): 144 nM
- Kd (human C2 F437A): 381 nM
B1: RF16-214 (antibody, V domains shown)
VH: EVQLLESGGGLVQPGGSLRLSCAASGFTFSWYQMMWVRQAPGKGLEWVSRIYPSGGGTAYADSVKGRFTISRDNSKNTLYLQMNSLRAEDTAVYYCARDAGYGDNWGQGTLVTVSS
VL: QSALTQPPSVSVSPGQTASITCSGDKLGEKYASWYQQKAGQSPVMVIYQDRKRPSGIPERFSGSNSGNTATLTISGTQAMDEADYYCQAWDTRAVVFGGGTKLTVLG
